The results in this text go back to the RNAGym collection of RNA variant scans (doi:10.1073/pnas.2313332121).

The chains are these.
B1: TPR 5TU (parent)
chain: GGAUCUUCUCGAUCUAACAAAAAAGACAAAUCUGCCACAAAGCUUGAGAGCAUCUUCGGAUGCAGAGGCGGCAGCCUUCGGUGGCGCGAUAGCGCCAACGUUCUCAACUAUGACACGCAAAACGCGUGCUCCGUUGAAUGGAGUUUAUCAUG

Fewer inactive variants are shown than the library holds.

The data set covers variants of B1. Put plainly: polymerase ribozyme fitness, log enrichment relative to wild type (log ratio); higher = more active; in vitro selection for triplet polymerase activity. The procedure, abridged:
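Genotype fitness is the logarithm of its enrichment divided by wild-type enrichment, using inverse-variance-weighted averages of replicates. That logarithm is base 2. Enrichment was measured by Illumina sequencing of input and output libraries from one triplicate in vitro selection round, with frozen incubation at −7 °C, on PCR-built, transcribed mutant libraries of each subunit of a heterodimeric triplet polymerase ribozyme, retaining genotypes with ≥10 input reads and ≥1 read per output.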
With A97U C125A, the “polymerase ribozyme fitness (log ratio)” value is -0.436. For C87G C105G the value was at most -4.2; for C132U C149G, -3.84. For C5U C8U A23C C85U C103A C116U the value was at most -4.2; for G65C C132G, at most -4.2; for C54G C96G G126A, -2.33.

In the case of A26G C32U U33G A49U A91U, the “polymerase ribozyme fitness (log ratio)” value was at most -4.2. For A41C U135G the value was -3.54; for A21C C35A A39C G100C G136U, at most -4.2. As for C27A G46U G50U U56A G70C U101G, the figure is at most -4.2. For U4C C103A U139C the value was -3.94; for A52G U90A A142G, at most -4.2; for C5G U7C A16C C27U C32G A49C U53G C125A A137U G143C, at most -4.2. In the case of A20G G70C C75U C93A C95U U109C, the “polymerase ribozyme fitness (log ratio)” value is at most -4.2. As for G80A A150G, the figure is -1.8; as for A41C C87U A120C, -1.53.

For U15A C32A U56G G58U G84U C108U U139G, the “polymerase ribozyme fitness (log ratio)” value was at most -4.2. As for C76A G92A U134C, the figure is -3.62.

As to G11A A26C G68U C75U A147C, the “polymerase ribozyme fitness (log ratio)” value was at most -4.2. As for A22C G50A C63A C69G A89G U127G G141U A142U, the figure is at most -4.2; as for C5A A37U, -0.964. Consider A49U G50A G84A C95G U146C, for which the “polymerase ribozyme fitness (log ratio)” value is -1.2. Turning to C43G G86U U139C, the “polymerase ribozyme fitness (log ratio)” value is -4.11. Regarding C5A A17C G88A G117U, the “polymerase ribozyme fitness (log ratio)” value was -3.46. Take C87U A137G U148C: the “polymerase ribozyme fitness (log ratio)” value was -3.87. As for C123U U145A, the figure is 0.729; as for A37U G92C G133C, -3.52. For G70A C87U A106G the value was -2.89; for U53A G81C C87U C123A, -1.74; for A49G U55A, -0.644. As for G50U G86A C93U C96U, the figure is -0.529. For A49C G65C G88U C96A, the “polymerase ribozyme fitness (log ratio)” value is -4.03. For A3U U7G C87A A91G C103U U135C, the “polymerase ribozyme fitness (log ratio)” value is at most -4.2. For C18G A24U C76A C95U G141A the value was -3.98; for C5U G11A A29U G70C G84A C96U, at most -4.2. As for C85A G136C, the figure is -4.19; as for C18U U90G, at most -4.2; as for A30U G42A C85U A89G C99A A107C A122U C125A U144C C149A, at most -4.2. For A16C C18G A47U G92A U101A the value was at most -4.2; for U56A G88U, -3.06; for G92U U104G C132U, -2.5. Regarding A47U G50A G84U A98U, the “polymerase ribozyme fitness (log ratio)” value was -3.28. For U9G A19C U55A the value was at most -4.2; for C51U C96U C105U, 0.0676. Regarding A73U C96A U109A C116U, the “polymerase ribozyme fitness (log ratio)” value was -3.64. For C85A G117A A138G the value was -4.18; for A24C U45A C57U G84A, at most -4.2; for U56A C79U C118G C132A, -4.05. For the variant C93G G140C, the “polymerase ribozyme fitness (log ratio)” value was at most -4.2.

Take A19C A20U C85U G136A: the “polymerase ribozyme fitness (log ratio)” value is -0.21. As for U56A C85G C93G A107U U111G, the figure is at most -4.2; as for U6A A16C U56A U61A C95U C114U, -3.64. For A29U G70U G71A C87U U90A A106U, the “polymerase ribozyme fitness (log ratio)” value is at most -4.2. U31C A60C C95A C99G A122G: the “polymerase ribozyme fitness (log ratio)” value is -3.66. Consider A21C G50A C96U C125G, for which the “polymerase ribozyme fitness (log ratio)” value is -1.98. For C85U G117U the value was 0.675; for U56A G58C G92A A106G, -3.51; for A20C C85U A89G A106G, -2.07. For G11A A41U A52U U55A C118U the value was at most -4.2; for A16U U53C A73G G94C A150C, at most -4.2. On to A24C G81U G83C A110U C114G, for which the “polymerase ribozyme fitness (log ratio)” value is at most -4.2.

Consider A60G A150G, for which the “polymerase ribozyme fitness (log ratio)” value is -0.0266.

On to U45C U77G C79G, for which the “polymerase ribozyme fitness (log ratio)” value is at most -4.2. For A37G C93U the value was -3.38; for U7C C10U U55A G62A G65C U78G C96A, at most -4.2. As for U135A C149U, the figure is -0.66; as for C35A C85A, -3.65. As for U7C C18U U61C C69A C93A C114U, the figure is at most -4.2; as for A37G U44A A52C G86U C95U U101G U144C, at most -4.2; as for A20C A30G G50U C95G A147G, at most -4.2.

With A20G G83A G88C C93G G100A C149U, the “polymerase ribozyme fitness (log ratio)” value is at most -4.2. As for A47G A49C A52G G81U G83C U134A, the figure is at most -4.2. G84C C95A A142C: the “polymerase ribozyme fitness (log ratio)” value was -1.65. For C93A A97U G128A the value was at most -4.2; for U4C C5G A20U, -1.25; for A17G U53A C79A G141C, at most -4.2.

Consider A24U U82G G83C, for which the “polymerase ribozyme fitness (log ratio)” value is -1.55. As for A24G C75A A113U, the figure is at most -4.2; as for A49G G62U C63U C96A A122U, -3.19; as for U53A C103G, -3.95.

Turning to A29U A41C A52C C87U U102C G136A G143C U146A, the “polymerase ribozyme fitness (log ratio)” value was at most -4.2.

Turning to A37U A98G, the “polymerase ribozyme fitness (log ratio)” value was -1.34.

On to A49C U77G G94C, for which the “polymerase ribozyme fitness (log ratio)” value was at most -4.2.
